Results as given in publication doi:10.1101/2023.09.21.558871, “Protein G-quadruplex interactions and their effects on phase transitions and protein aggregation”.

T1: Znf706 A2C-AF488 (Homo sapiens, UniProt Q9Y5V0 1-76, A2C)
T1 sequence: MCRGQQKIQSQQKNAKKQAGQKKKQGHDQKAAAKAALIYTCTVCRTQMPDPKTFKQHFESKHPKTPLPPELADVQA


Biological target: T1, Znf706 A2C-AF488
Assay: fluorescence anisotropy; 20 mM NaPi, 100 mM KCl, 0.05% NaN3, pH 7.4, 25 C (FP/anisotropy); unfolded G4: 20 mM Tris-HCl, 100 mM LiCl, pH 7.4; G4C2 also 20 mM NaPi, 100 mM NaCl, pH 7.4; NMR at 4 C or 37-50 C with 7.5% D2O
Settings: protein: recombinant; tags: AF488 label on Cys; His6-SUMO cleaved

Binder	binding result
AAAAAAAAAAAAAAAAAAAA (ssDNA) [polyA]	no binding
TTTTTTTTTTTTTTTTTTTT (ssDNA) [polyT]	no binding
